# Laboratory results: US7657380
# Changes are numbered by the printed parent chain.
# T1: human CD30 (commercial, conjugated to digoxigenin) (human, UniProt P28908 19-379, limits assumed, conjugated to digoxigenin (DIG))
# T1 sequence (looked up): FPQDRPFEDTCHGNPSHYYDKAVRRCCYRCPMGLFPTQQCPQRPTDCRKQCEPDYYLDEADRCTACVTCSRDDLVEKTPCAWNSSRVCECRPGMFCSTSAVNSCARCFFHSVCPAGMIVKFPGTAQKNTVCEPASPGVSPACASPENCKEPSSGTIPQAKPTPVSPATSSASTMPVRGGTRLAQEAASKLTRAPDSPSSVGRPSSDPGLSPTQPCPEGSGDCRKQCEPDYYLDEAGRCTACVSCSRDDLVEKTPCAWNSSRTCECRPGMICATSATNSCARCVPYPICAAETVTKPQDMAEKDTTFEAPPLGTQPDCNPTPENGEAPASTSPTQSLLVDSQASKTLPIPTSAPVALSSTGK
# B1: AC10 H3/L3.9 (antibody, IgG1, name in Kabat numbering, V domains shown)
# VH: QIQLVQSGPEVKKPGASVKVSCKASGYTFTDYYITWVRQAPGQGLEWMGWIYPGSGNTKYNEKFQGRFVFSVDTSASTAYLQISSLKAEDTAVYFCANYGNYWFAYWGQGTLVTVSS
# VL: DIVLTQSPDSLAVSLGERATINCKASQSIDFDGDSYMNWYQQKPGQPPKVLIYAASNLESGIPARFSGSGSGTDFTLTINSLEAEDAATYYCQQSNEDPWTFGGGTKVEIK
# B2: AC10 H3/L3.24 (antibody, IgG1, name in Kabat numbering, V domains shown)
# VH: B1 VH
# VL: B1 VL with I29V, Y36D
# B3: AC10 H3/L3.28 (antibody, IgG1, name in Kabat numbering, V domains shown)
# VH: B1 VH
# VL: B1 VL with I29V, N38D
# B4: AC10 H3/L3.19 (antibody, IgG1, name in Kabat numbering, V domains shown)
# VH: B1 VH
# VL: B1 VL with I29V, D34S
# B5: AC10 H3/L3.40 (antibody, IgG1, name in Kabat numbering, V domains shown)
# VH: B1 VH
# VL: B1 VL with I29V, E59Q
# B6: AC10 H3/L3.54 (antibody, IgG1, name in Kabat numbering, V domains shown)
# VH: B1 VH
# VL: B1 VL with I29V, N96Y
# B7: AC10 H3/L3.56 (antibody, IgG1, name in Kabat numbering, V domains shown)
# VH: B1 VH
# VL: B1 VL with I29V, E97N
# B8: AC10 H3/L3.18 (antibody, IgG1, name in Kabat numbering, V domains shown)
# VH: B1 VH
# VL: B1 VL with I29V, D34N
# B9: AC10 H3/L3.30 (antibody, IgG1, name in Kabat numbering, V domains shown)
# VH: B1 VH
# VL: B1 VL with I29V, V50L
# B10: AC10 H3/L3.65 (antibody, IgG1, name in Kabat numbering, V domains shown)
# VH: B1 VH
# VL: B1 VL with I29V, W100F
# B11: AC10 H3/L3.20 (antibody, IgG1, name in Kabat numbering, V domains shown)
# VH: B1 VH
# VL: B1 VL with I29V, D34Y
# B12: AC10 H3/L3.62 (antibody, IgG1, name in Kabat numbering, V domains shown)
# VH: B1 VH
# VL: B1 VL with I29V, D98L
# B13: AC10 H3/L3.44 (antibody, IgG1, name in Kabat numbering, V domains shown)
# VH: B1 VH
# VL: B1 VL with I29V, A64S
# B14: AC10 H3/L3.27 (antibody, IgG1, name in Kabat numbering, V domains shown)
# VH: B1 VH
# VL: B1 VL with I29V, N38A
# B15: AC10 H3/L3.48 (antibody, IgG1, name in Kabat numbering, V domains shown)
# VH: B1 VH
# VL: B1 VL with I29V, S95G
# B16: AC10 H3/L3.13 (antibody, IgG1, name in Kabat numbering, V domains shown)
# VH: B1 VH
# VL: B1 VL with I29V, F31D
# B17: AC10 H3/L3.58 (antibody, IgG1, name in Kabat numbering, V domains shown)
# VH: B1 VH
# VL: B1 VL with I29V, E97S
# B18: AC10 H3/L3.23 (antibody, IgG1, name in Kabat numbering, V domains shown)
# VH: B1 VH
# VL: B1 VL with I29V, S35N
# B19: AC10 H3/L3.55 (antibody, IgG1, name in Kabat numbering, V domains shown)
# VH: B1 VH
# VL: B1 VL with I29V, E97K
# B20: AC10 H3/L3.43 (antibody, IgG1, name in Kabat numbering, V domains shown)
# VH: B1 VH
# VL: B1 VL with I29V, A64D
# B21: AC10 H3/L3.60 (antibody, IgG1, name in Kabat numbering, V domains shown)
# VH: B1 VH
# VL: B1 VL with I29V, D98F
# B22: AC10 H3/L3.49 (antibody, IgG1, name in Kabat numbering, V domains shown)
# VH: B1 VH
# VL: B1 VL with I29V, S95H
# B23: AC10 H3/L3.38 (antibody, IgG1, name in Kabat numbering, V domains shown)
# VH: B1 VH
# VL: B1 VL with I29V, L58R
# B24: AC10 H3/L3.12 (antibody, IgG1, name in Kabat numbering, V domains shown)
# VH: B1 VH
# VL: B1 VL with I29V, D30V
# B25: AC10 H3/L3.33 (antibody, IgG1, name in Kabat numbering, V domains shown)
# VH: B1 VH
# VL: B1 VL with I29V, A54D
# B26: AC10 H3/L3.42 (antibody, IgG1, name in Kabat numbering, V domains shown)
# VH: B1 VH
# VL: B1 VL with I29V, I62V
# B27: AC10 H3/L3.66 (antibody, IgG1, name in Kabat numbering, V domains shown)
# VH: B1 VH
# VL: B1 VL with I29V, W100I
# B28: AC10 H3/L3.25 (antibody, IgG1, name in Kabat numbering, V domains shown)
# VH: B1 VH
# VL: B1 VL with I29V, M37L
# B29: AC10 H3/L3.50 (antibody, IgG1, name in Kabat numbering, V domains shown)
# VH: B1 VH
# VL: B1 VL with I29V, S95L
# B30: AC10 H3/L3.63 (antibody, IgG1, name in Kabat numbering, V domains shown)
# VH: B1 VH
# VL: B1 VL with I29V, D98S
# B31: AC10 H3/L3.15 (antibody, IgG1, name in Kabat numbering, V domains shown)
# VH: B1 VH
# VL: B1 VL with I29V, F31Y
# B32: AC10 H3/L3.39 (antibody, IgG1, name in Kabat numbering, V domains shown)
# VH: B1 VH
# VL: B1 VL with I29V, E59A
# B33: AC10 H3/L3.37 (antibody, IgG1, name in Kabat numbering, V domains shown)
# VH: B1 VH
# VL: B1 VL with I29V, N57T
# B34: AC10 H3/L3.17 (antibody, IgG1, name in Kabat numbering, V domains shown)
# VH: B1 VH
# VL: B1 VL with I29V, D34K
# B35: AC10 H3/L3.51 (antibody, IgG1, name in Kabat numbering, V domains shown)
# VH: B1 VH
# VL: B1 VL with I29V, S95Y
# B36: AC10 H3/L3.22 (antibody, IgG1, name in Kabat numbering, V domains shown)
# VH: B1 VH
# VL: B1 VL with I29V, S35T
# B37: AC10 H3/L3.21 (antibody, IgG1, name in Kabat numbering, V domains shown)
# VH: B1 VH
# VL: B1 VL with I29V, S35D
# B38: AC10 H3/L3.16 (antibody, IgG1, name in Kabat numbering, V domains shown)
# VH: B1 VH
# VL: B1 VL with I29V, D32N
# B39: AC10 H3/L3.32 (antibody, IgG1, name in Kabat numbering, V domains shown)
# VH: B1 VH
# VL: B1 VL with I29V, V50S
# B40: AC10 H3/L3.64 (antibody, IgG1, name in Kabat numbering, V domains shown)
# VH: B1 VH
# VL: B1 VL with I29V, D98T
# B41: AC10 H3/L3.34 (antibody, IgG1, name in Kabat numbering, V domains shown)
# VH: B1 VH
# VL: B1 VL with I29V, A54S
# B42: AC10 H3/L3.53 (antibody, IgG1, name in Kabat numbering, V domains shown)
# VH: B1 VH
# VL: B1 VL with I29V, N96S
# B43: AC10 H3/L3.41 (antibody, IgG1, name in Kabat numbering, V domains shown)
# VH: B1 VH
# VL: B1 VL with I29V, S60T
# Biological target: T1, human CD30 (commercial, conjugated to …)
# Experiment: AlphaScreen competition
row,Binder,Fold IC50 vs H3/L3 [fold]
1,B1,0.58
2,B2,0.46
3,B3,0.41
4,B4,1.13
5,B5,0.87
6,B6,0.96
7,B7,0.64
8,B8,1.45
9,B9,0.39
10,B10,0.34
11,B11,0.78
12,B12,0.46
13,B13,1.08
14,B14,0.38
15,B15,0.29
16,B16,0.32
17,B17,0.49
18,B18,0.71
19,B19,0.27
20,B20,1.16
21,B21,0.02
22,B22,0.01

row,Binder,Fold IC50 vs H3/L3 [fold]
1,B23,1.46
2,B24,1.15
3,B25,0.26
4,B26,1.55
5,B27,0
6,B28,1.36
7,B29,0.02
8,B30,0.57
9,B31,0.63
10,B32,0.85
11,B33,1.26
12,B34,1.21
13,B35,0.02
14,B36,0.46
15,B37,0.81
16,B38,1.61
17,B39,0.32
18,B40,0.14
19,B41,0.47
20,B42,0.48
21,B43,1.8
